Assay results as given in FireProtDB (doi:10.1021/bi9928694).

Conditions: Homo sapiens, reversible: yes, whole UniProt chain shown
[1] = pH 2.7, Thermal, DSC, glycine-HCl 0.05 M
[2] = pH 4, 10 °C, GdnHCl, CD, glycine-HCl 40 mM

B1: Lysozyme C wild type, P61626 (protein)
chain: MKALIVLGLVLLSVTVQGKVFERCELARTLKRLGMDGYRGISLANWMCLAKWESGYNTRATNYNAGDRSTDYGIFQINSRYWCNDGKTPGAVNACHLSCSALLQDNIADAVACAKRVVRDPQGIRAWVAWRNRCQNRDVRQYVQGCGV
Tm [1]: 64.9 °C
heat capacity change of unfolding [1]: 1.58 kcal/mol/K
unfolding enthalpy (calorimetric) [1]: 114 kcal/mol
denaturant midpoint (higher = more stable) [2]: 3.96 M
unfolding free energy [2]: 14.3 kcal/mol
